Test system: T1, pegylated peptide-linked C12-miR (P.5-L-C12-miR)
T1 sequence: KGDGG

lysosomal enzyme Cathepsin D (Cat. No. C8696, Sigma-Aldrich)
enzyme cleavage in vitro, size reduction on 15% acrylamide/8 M urea gel: the pegylated peptide-linked C12-miR (P.5-L-C12-miR) was cleaved by lysosomal cathepsin D and resulted in a smaller fragment
